# Data as given in the nanobody polyreactivity screen of Harvey et al. (2022).
# Assay: yeast display, Sf9 membrane polyspecificity reagent, FACS + sequencing; frameworks hold sequencing errors
# In short: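 Sorting gates, low and high (top ~1%), were placed on anti-HA fluorescence to track expression and on streptavidin fluorescence to track reagent binding. A clone's polyreactivity label is taken from the gate it came out of. The reagent was 10% biotinylated, detergent-solubilized Sf9 membrane, applied for 1 hour at 4 °C to galactose-induced yeast display cells.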
row,Sequence,polyreactivity (PSR sort gate)
1,QVQLVESGGGLVQAGGSLRLSCAASGSIFNYTMGWYRQGPAQERQLVAVISRSGGRTYYADSVKGRFTISRDNAKNTVYLQMNSLKPEDTAVYYCATDGHNGYYGRYDYWGHGTQVTVSS,high polyreactivity
2,QVQLVESGGGLVQAGGSLRLSCAASGRTFESYVMGWYRQAPGKESELVAAISNGGSTNYADSVKGRFTISRDNAKNTVYLQMNSLKPEDTAVYYCAVRVSGPRGYDYEYWGQGTQVTVSS,low polyreactivity
3,QVQLVESGGGLVQAGGSLRLSCAASGRIYPYYAMGWYRQAPGKERELVAAITTRGGSTYYADSVKGRFTISRDNAKNTVYLQMNSLKPEDTAVYYCAAVTFGRMEYWGQGTQVTVSS,low polyreactivity
4,QVQLVESGGGLVQAGGSLRLSCAASGRTFGLNVMGWYRQAPGKERELVATISWSGGTTYYADSVKGRFTISRDYAKNTVYLQMNSLKPEDTAVYYCNRQVTWYPTGGFWGQGTQVTVSS,low polyreactivity
5,QVQLVESGGGLVQAGGSLRLSCDASGFTIYHYAIGCYRQATGKERELVDANSRSGGSTYYADSVKGRFTISRDNAQNTFYLQMNSLKPEDTAVYYCAKVLRAKNSFDYWGQGTQVTVSS,high polyreactivity
6,QGQLVESGGGLVQAGGSLRLSCAASGFIFVVYAMGWYRQAPGKERELVAAITFSGGSTYYADSVKGRFTISRDNAKNTVYLQMISLKPEVTAVYYCAAAEHDREFDSWGHGTQVTVSS,low polyreactivity
7,QVQLVESGGGLVQAGGSLRLICAASGYIFVRNAMGWYRQAPGKEREFVATISRRGGTTYYADSVKGRFTISRDNAKNTVYLQMNSLKPEDTAVYYCAARNWPSRGYKYWGQGTQVTVSS,high polyreactivity
8,QVQLVESGGGLVQAGGSLRLSCAASGFIFDINAMGWYRQAPGTERELVADIRGGGSTYYADSVKGRFTISRDNAKNTVYVQMNSLKPEDTAVYYCNALDSYRHRPFDYWGQGTQVTVSS,low polyreactivity
9,QVQLVESGGGLVQAGGSLRLSCAASGSTFTWNAMGWYRQAPGKERELGASISGRGGSTYYADSVKGRFTISRDNAKNTVYLQMNSLKPEDTAVYYCAARGVSYHYPSGYDYWGQGTQVTVSS,high polyreactivity
10,QVQLVESGGRLVQAGGSIRLSCAASGRTFYTNAMGWYRQAPGKERELVAAISSGGSTYYADSVKGRFTISRDNAKNTVYLQMNSLKPEDTAVYYCNVRRGGWGYRYYYWGQGTQVTVSS,high polyreactivity
11,QVQLVESGGGLVQAGGSLRLSCAASGSIFDFYAMGWYRQAPGKERELVAAINRGGSTYYADSVKGRFTISRDNAKNTVYLQMNSLKPEDTAVYYCAASYFYWRANRGPRYYWGQGTQVTVSS,high polyreactivity
12,QVQLVESWGGLFQAGGSLRLSCAASGRIWWNAMGWYIQSPGKERELVAAIRWSGGITRYADSVKGRFTFSGDNAKNTVYLQMKSLKPEDTAVYYCAARRNTVTGYQYYYWGQGTQVSVSS,high polyreactivity
13,QVQLVESGGGVVQAGGSLRLSCAASGRIFRYTMGWYRQAPGKETELVADITRHGGSTYYADSVKGRFTISRDNAKNTVYLQMNSLKPEDTAVYYCAADHLSYRRRYEYWGQGTQVTVSS,low polyreactivity
14,QVQLVESGGGLVQAGGSLRLSCAASGRTFPRYAMGWYRQAPGKERELVAAISVRAGITYYADSVKGRFTISRDNAKNTVYLQMKSLKPEDTADYYCAKDHWTSSYDEGDYWGQGTQVTVSS,low polyreactivity
15,QVQLQESGGGQVQAGGSLRLSCAASGSIYDDTYMGWYRQAPGKERELVATIDSGSTTNYADSVIGRITISRDNAKNTVYLQMNSLKPEDTAVYYCAAADSHIDYFDYWGQGTQVTVSS,low polyreactivity
16,QVQLVESGGGLVQAGGSLRLSCAASGIIFGDNAMGWYRQATGKERELVAAIDYGDGSTYYADSVKGRFTISRDNENNTVYLQMNRLKPEDTAVYYCNADDGGPGVVLPTKEYDYWGQGTQVTVSS,low polyreactivity
17,QVQLVESGAGLVQAGRSLRLSCAASGRTLSRFAMGGYRQAPGKERELVAGITSGGDTRTYYADSVKGRFTISRDYAKNTVYLQMNSLKPEDPAVYYCWGQVTQVTVSS,low polyreactivity
18,QVQLEESGGGLVQAGGSLRLSCAASGRIFRYYTMGGYRQAPGKERELVDAISGSGGSTYYADSVKGRFTISRDNAKNTVYLQMNSLKPEDTSVYYCAAAHRYWGQGTQVTVSS,high polyreactivity
19,QVQLVESGGGLVQAGGSLRLSCAASGSIFYYNTMGWYRQAPGKEREFVADISVIGGSTYYADSVKGRFTISRDNAKNTVYLQMNSLKPEDTAVYYCAARRYLRPHGLYGYWGQGSQVTVSS,low polyreactivity
20,QVQLAESGGGLVQAGGSLRLSCAASGRIFARNAMGWYRQAPGKERELVAAISWSGGRTYYADSVKGRFTISRDNAKNTVYLQMNSLKPEDTAVYYCAADHYPWWAWEFDYWGQGTQVTVSS,low polyreactivity
21,QVQLVESGGGLVHAGGSLRLSCAASGRTFAGNVMGWYIQAPGKEREFVAAISLSGGNTYYADSVKGRFTISRDNAKNTVYLQMNSLKPEDTAVYYCAADYEYSGYGYWGQGTQVTVSS,high polyreactivity

row,Sequence,polyreactivity (PSR sort gate)
1,QVQLVESGGGLVQAGGSLRLSCAASGITFWTYAMGWYRQAPGKERELVAAISKSGGSTYYADSVKGRFTISRDNAKYNVYLQLKSLKPEDTAVYYCAAKGLRYRDIDYDYWGQGTQVTVSW,low polyreactivity
2,QVQLVESGGGLVQAGGSLRLSCAASGRIFVKNTMGLYRQAPGKERELVAAISWYGGSTYYADSVKGRFTISRDNAMNTVYLQMNSLKPEDTAFYYCAAATWQWPWYDYWGQGTKVTVSS,high polyreactivity
3,QVQLVESGGGLVQAGGSLRLSCDASGRIFRYYAMGWYRQAPGKERELVAAISSDGSTDYADSVKGRFTISRDNAKNTVYLQMNSLKPEDTAVYYCAASVVSYGHDYWGQGTQVTVSS,low polyreactivity
4,QVQLVESGGGLVQAGGSLRLSCAASGLILGPYAMGWYRKAPGKERELVAAITRGGGTYYADSVKGRFTISRDNAKNTVYLQMNSLKPEDTAVYDCARIYYVSIYRYDYWGQGTQVTVSS,high polyreactivity
5,QVQLVESGGGLVQAGGSLRLSCAASGRTLDLYAMGWYRQAPGKERELVAAISWRGGRTYYADSVKGRFTISRDNAQTTVYLQMNSLKPEDTAVYYCKADYPWSVVGYDYWGQGTQVSVSS,low polyreactivity
6,QVQLVESGGCLVQAGGSLRLSCAASGSTFLGNAMGWYRQAPGKERELVAGITSGGTTNYADSVKGRFTISRDNAKNTVYLQMNSLKPEDTAVYYCNADVWIGQLFDPGYDFDYWGQGTQVTVSS,low polyreactivity
7,QVQLVESGGGLDQAGGSLRLSSAASGFIFWFNAMRWYRQAPGTERELVATISRSDTSTYYADSVKGRFTISRDNAKNSVYLQMNSLKPEDTAVYYCATDVRETWLPEYYWGQGTEVTVSS,low polyreactivity
8,QVQLVESGGGLVQAGGSLRLSCAASGFTFGLYAMGWYRQAPGKERELVAVISSSGGSTYYADSVKGRFTISRDNAKNTVYLQMNSLTPEDTAVYYCAKDFEAGDDYFAYDYWGQGTQVTVSS,low polyreactivity
9,QVQLVESGGGLVQAGGSLRLSCAASGSIFYHYAMGWYRQAPGKDRELVADITQSGGTTDYADSVKGRFTISRYNAKNTVYLQMNSLKPEDTAVYYCAADGDTTSPTYYIFWSGEFDYWGQGNQVTVSS,low polyreactivity
10,QFQLVESGGGLVQAGRSLRLSCAASGSIFWSNAMGWYRQAPGKERELVAAITTSDGSKYYADSVKGRFRISRDNANNTVYLQMNILKPEDTAVYYCAADTYFVCYGYYYWGQGTQVTVSS,low polyreactivity
11,QVQLVESGGGLVQAGGSLRLSCAASGFTLANYAMGWYRQAPGKERELVAAISSSTGGTYYADSVKGRFTISRDNAKNTVYLQMNSLKPEDTAVYYCAAEYYFHKYVRMYYWGQGTQVTVSS,high polyreactivity
12,QVQLVESGGGLVQAGGRLRLTCAASASIFYYYTMGWYRQAPGKERELVAAINSIGGRTYYADSVKGRFTISRDNAKNTVYLQMNSLKQEDNAVYYCNAVLDPGDQDDYDYWGQGTQVTLSS,low polyreactivity
13,QVQLVESGGGLVQAGGSLRLSFAASGRIFYNYAMGWYRQAPGTERELVAAITDSDGSTYADSVKGRFTISRDNAMNTVYFQMNSLKPEDTAVYYCAARRYYPYKYRYGYWGQGTQVTVSS,high polyreactivity
14,QVQLVESGGGLVQAGGSLRLSCAASGRIFFNYAMGWYSQAPGKERELVAAIRGGGSTYADSVKGRFTISRDNAKNTVYLQLNSLKPADTAVYYCAARYSGSPYHTRRYYYWGQGTQVTVSS,high polyreactivity
15,QVQLVESGGGLVQAGGSLRLSCAASGLTFTTYAMGWYIPAPGKDRELVSAINYRGTSSYYADSVKGRFTISRDNAKKTVYLQINSLKPEDTAVYYCNARQTRSSRINYAEGIYNFWGQGTQVTVSS,high polyreactivity
16,QVQLVESGGGLVQAGGSLRLSCAASGSTFGNYAMGWYRQAPGKERELVATISRSGGSTYYADSVQGRFTISRDIAKNTVNLQMNSLKPEDTAVYYCNRRYYTRKPDYNSWGQGTQVTVSS,high polyreactivity
17,QVQLVESGGGLVQAGGSLRLSCAASGSTFESNAMGWYRQAPGKERELVASISGSGGSTFYADSVKGRFTISRDNAKNTVYLQMNSLKPEDTAVYYCNRGRDEYDYWGQGTQVTVSS,low polyreactivity
18,QVQLVESGGGLVQAGGSLRLSCAASGLIFVYNDMGWYRQAPGKERELVAGITGTGGNTYYADSVKGRFTISRDNAKNTVYLQMNSLKPEDTAVYYCAAQRSVFKSFRTTYVRYDYWGQGTQVTVSS,high polyreactivity
19,QVQLVESGGGLVQAGGSLRLSCADSGRIITVYDMGWYRQAPGKEREYVAAISDTDSSTYADSVKGRFTISRDNAKNTVYLQMNSLKPEDTAVYYCNAVGDIFGRVSTEYEYWGQGTQVTVSA,low polyreactivity
20,QVQLVETGGGLVQAGGRLRLSCAASGSTFGSYAMGWYRQAPGKERELVATITESDGTTYYADSVKGSFTISRDNAKNTVYLQMNSLKREDTAVYYCAANYSGDRKRYWPGDTDDYWGQGTQVTVSS,high polyreactivity
